The source of these data is patent US20140087995A1 (published 2014).

T1: rat amylin receptor (rat calcitonin receptor + rat RAMP 3) (rat, UniProt P32214 25-516; Q9JJ73 23-147)
T1 construct: whole, on cells; Membranes prepared from transiently transfected BHK tk'ts 13 cells; also called rAmylin-R; rat amylin 3(a) receptor
T1 sequence (looked up) 1: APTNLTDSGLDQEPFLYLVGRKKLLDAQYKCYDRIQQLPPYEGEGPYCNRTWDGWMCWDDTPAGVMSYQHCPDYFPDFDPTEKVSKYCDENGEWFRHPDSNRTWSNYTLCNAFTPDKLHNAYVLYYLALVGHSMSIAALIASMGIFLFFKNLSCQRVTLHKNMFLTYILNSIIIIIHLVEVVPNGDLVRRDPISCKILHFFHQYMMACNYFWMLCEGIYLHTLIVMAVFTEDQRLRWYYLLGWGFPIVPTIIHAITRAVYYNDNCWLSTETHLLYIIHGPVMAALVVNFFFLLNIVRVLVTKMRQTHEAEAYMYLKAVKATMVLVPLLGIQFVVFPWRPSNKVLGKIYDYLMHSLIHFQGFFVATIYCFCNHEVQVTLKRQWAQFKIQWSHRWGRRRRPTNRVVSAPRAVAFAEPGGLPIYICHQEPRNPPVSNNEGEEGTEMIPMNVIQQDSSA
T1 sequence (looked up) 2: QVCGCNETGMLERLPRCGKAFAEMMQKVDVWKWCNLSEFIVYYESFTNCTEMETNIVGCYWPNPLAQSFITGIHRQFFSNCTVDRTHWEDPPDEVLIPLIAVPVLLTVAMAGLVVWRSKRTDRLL

T2: rat calcitonin receptor (rat, UniProt P32214 25-516)
T2 construct: whole, on cells; Membranes prepared from transiently transfected BHK tk'ts 13 cells; also called rCTR; rat calcitonin (a) receptor
T2 sequence (looked up): T1 sequence (looked up) 1

T3: human calcitonin receptor (human, UniProt P30988 25-474)
T3 construct: whole, on cells; Membranes from stably transfected BHK cells; also called hCTR; hCT
T3 sequence (looked up): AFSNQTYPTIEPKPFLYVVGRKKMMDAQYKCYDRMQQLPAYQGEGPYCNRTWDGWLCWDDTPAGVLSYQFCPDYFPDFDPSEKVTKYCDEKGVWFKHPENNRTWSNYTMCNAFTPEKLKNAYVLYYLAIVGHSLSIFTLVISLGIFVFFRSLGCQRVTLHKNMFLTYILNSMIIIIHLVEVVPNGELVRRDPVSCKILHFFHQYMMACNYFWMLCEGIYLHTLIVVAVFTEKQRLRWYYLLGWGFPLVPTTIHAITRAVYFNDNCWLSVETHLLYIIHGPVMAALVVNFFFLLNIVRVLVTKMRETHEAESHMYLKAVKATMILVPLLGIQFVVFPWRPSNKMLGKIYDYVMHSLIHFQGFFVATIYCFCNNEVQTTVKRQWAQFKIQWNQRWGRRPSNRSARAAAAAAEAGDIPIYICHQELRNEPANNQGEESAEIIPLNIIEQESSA

B1: N^ε1-[(4S)-4-carboxy-4-(19-carboxynonadecanoylamino)butanoyl]-[Asp14,Arg17,Pro21,Pro27,Pro34,Glu35]-h-amylin (peptide)
peptide: K([γGlu-C20 diacid])CNTATCATQRLADFLRHSSPNFGAIPSSTNVGPETY-NH2
modifications: disulfide 2-7; N-terminus assumed
SMILES: CC[C@H](C)[C@H](NC(=O)[C@H](C)NC(=O)CNC(=O)[C@H](Cc1ccccc1)NC(=O)[C@H](CC(N)=O)NC(=O)[C@@H]1CCCN1C(=O)[C@H](CO)NC(=O)[C@H](CO)NC(=O)[C@H](Cc1c[nH]cn1)NC(=O)[C@H](CCCNC(=N)N)NC(=O)[C@H](CC(C)C)NC(=O)[C@H](Cc1ccccc1)NC(=O)[C@H](CC(=O)O)NC(=O)[C@H](C)NC(=O)[C@H](CC(C)C)NC(=O)[C@H](CCCNC(=N)N)NC(=O)[C@H](CCC(N)=O)NC(=O)[C@@H](NC(=O)[C@H](C)NC(=O)[C@@H]1CSSC[C@H](NC(=O)[C@@H](N)CCCCNC(=O)CC[C@H](NC(=O)CCCCCCCCCCCCCCCCCCC(=O)O)C(=O)O)C(=O)N[C@@H](CC(N)=O)C(=O)N[C@@H]([C@@H](C)O)C(=O)N[C@@H](C)C(=O)N[C@@H]([C@@H](C)O)C(=O)N1)[C@@H](C)O)C(=O)N1CCC[C@H]1C(=O)N[C@@H](CO)C(=O)N[C@@H](CO)C(=O)N[C@H](C(=O)N[C@@H](CC(N)=O)C(=O)N[C@H](C(=O)NCC(=O)N1CCC[C@H]1C(=O)N[C@@H](CCC(=O)O)C(=O)N[C@H](C(=O)N[C@@H](Cc1ccc(O)cc1)C(N)=O)[C@@H](C)O)C(C)C)[C@@H](C)O
B2: N^ε1-[(4S)-4-carboxy-4-(19-carboxynonadecanoylamino)butanoyl]-[Glu14,Arg17,Pro21,Pro27,His35]-h-amylin (peptide)
peptide: K([γGlu-C20 diacid])CNTATCATQRLAEFLRHSSPNFGAIPSSTNVGSHTY-NH2
modifications: disulfide 2-7; N-terminus assumed
SMILES: CC[C@H](C)[C@H](NC(=O)[C@H](C)NC(=O)CNC(=O)[C@H](Cc1ccccc1)NC(=O)[C@H](CC(N)=O)NC(=O)[C@@H]1CCCN1C(=O)[C@H](CO)NC(=O)[C@H](CO)NC(=O)[C@H](Cc1c[nH]cn1)NC(=O)[C@H](CCCNC(=N)N)NC(=O)[C@H](CC(C)C)NC(=O)[C@H](Cc1ccccc1)NC(=O)[C@H](CCC(=O)O)NC(=O)[C@H](C)NC(=O)[C@H](CC(C)C)NC(=O)[C@H](CCCNC(=N)N)NC(=O)[C@H](CCC(N)=O)NC(=O)[C@@H](NC(=O)[C@H](C)NC(=O)[C@@H]1CSSC[C@H](NC(=O)[C@@H](N)CCCCNC(=O)CC[C@H](NC(=O)CCCCCCCCCCCCCCCCCCC(=O)O)C(=O)O)C(=O)N[C@@H](CC(N)=O)C(=O)N[C@@H]([C@@H](C)O)C(=O)N[C@@H](C)C(=O)N[C@@H]([C@@H](C)O)C(=O)N1)[C@@H](C)O)C(=O)N1CCC[C@H]1C(=O)N[C@@H](CO)C(=O)N[C@@H](CO)C(=O)N[C@H](C(=O)N[C@@H](CC(N)=O)C(=O)N[C@H](C(=O)NCC(=O)N[C@@H](CO)C(=O)N[C@@H](Cc1c[nH]cn1)C(=O)N[C@H](C(=O)N[C@@H](Cc1ccc(O)cc1)C(N)=O)[C@@H](C)O)C(C)C)[C@@H](C)O
B3: N^ε1-[(4S)-4-carboxy-4-(19-carboxynonadecanoylamino)butanoyl]-[Glu14,Arg17,Pro21,Pro27,His34,Glu35]-h-amylin (peptide)
peptide: K([γGlu-C20 diacid])CNTATCATQRLAEFLRHSSPNFGAIPSSTNVGHETY-NH2
modifications: disulfide 2-7; N-terminus assumed
SMILES: CC[C@H](C)[C@H](NC(=O)[C@H](C)NC(=O)CNC(=O)[C@H](Cc1ccccc1)NC(=O)[C@H](CC(N)=O)NC(=O)[C@@H]1CCCN1C(=O)[C@H](CO)NC(=O)[C@H](CO)NC(=O)[C@H](Cc1c[nH]cn1)NC(=O)[C@H](CCCNC(=N)N)NC(=O)[C@H](CC(C)C)NC(=O)[C@H](Cc1ccccc1)NC(=O)[C@H](CCC(=O)O)NC(=O)[C@H](C)NC(=O)[C@H](CC(C)C)NC(=O)[C@H](CCCNC(=N)N)NC(=O)[C@H](CCC(N)=O)NC(=O)[C@@H](NC(=O)[C@H](C)NC(=O)[C@@H]1CSSC[C@H](NC(=O)[C@@H](N)CCCCNC(=O)CC[C@H](NC(=O)CCCCCCCCCCCCCCCCCCC(=O)O)C(=O)O)C(=O)N[C@@H](CC(N)=O)C(=O)N[C@@H]([C@@H](C)O)C(=O)N[C@@H](C)C(=O)N[C@@H]([C@@H](C)O)C(=O)N1)[C@@H](C)O)C(=O)N1CCC[C@H]1C(=O)N[C@@H](CO)C(=O)N[C@@H](CO)C(=O)N[C@H](C(=O)N[C@@H](CC(N)=O)C(=O)N[C@H](C(=O)NCC(=O)N[C@@H](Cc1c[nH]cn1)C(=O)N[C@@H](CCC(=O)O)C(=O)N[C@H](C(=O)N[C@@H](Cc1ccc(O)cc1)C(N)=O)[C@@H](C)O)C(C)C)[C@@H](C)O
notes: also called compound 107
B4: N^ε1-[(4S)-4-carboxy-4-(19-carboxynonadecanoylamino)butanoyl]-[Glu14,Arg17,Pro21,Pro27,Pro34,Arg35]-h-amylin (peptide)
peptide: K([γGlu-C20 diacid])CNTATCATQRLAEFLRHSSPNFGAIPSSTNVGPRTY-NH2
modifications: disulfide 2-7; N-terminus assumed
SMILES: CC[C@H](C)[C@H](NC(=O)[C@H](C)NC(=O)CNC(=O)[C@H](Cc1ccccc1)NC(=O)[C@H](CC(N)=O)NC(=O)[C@@H]1CCCN1C(=O)[C@H](CO)NC(=O)[C@H](CO)NC(=O)[C@H](Cc1c[nH]cn1)NC(=O)[C@H](CCCNC(=N)N)NC(=O)[C@H](CC(C)C)NC(=O)[C@H](Cc1ccccc1)NC(=O)[C@H](CCC(=O)O)NC(=O)[C@H](C)NC(=O)[C@H](CC(C)C)NC(=O)[C@H](CCCNC(=N)N)NC(=O)[C@H](CCC(N)=O)NC(=O)[C@@H](NC(=O)[C@H](C)NC(=O)[C@@H]1CSSC[C@H](NC(=O)[C@@H](N)CCCCNC(=O)CC[C@H](NC(=O)CCCCCCCCCCCCCCCCCCC(=O)O)C(=O)O)C(=O)N[C@@H](CC(N)=O)C(=O)N[C@@H]([C@@H](C)O)C(=O)N[C@@H](C)C(=O)N[C@@H]([C@@H](C)O)C(=O)N1)[C@@H](C)O)C(=O)N1CCC[C@H]1C(=O)N[C@@H](CO)C(=O)N[C@@H](CO)C(=O)N[C@H](C(=O)N[C@@H](CC(N)=O)C(=O)N[C@H](C(=O)NCC(=O)N1CCC[C@H]1C(=O)N[C@@H](CCCNC(=N)N)C(=O)N[C@H](C(=O)N[C@@H](Cc1ccc(O)cc1)C(N)=O)[C@@H](C)O)C(C)C)[C@@H](C)O
B5: N^ε1-[(4S)-4-carboxy-4-(19-carboxynonadecanoylamino)butanoyl]-[Glu14,Arg17,Pro21,Pro27,Arg34,Glu35]-h-amylin (peptide)
peptide: K([γGlu-C20 diacid])CNTATCATQRLAEFLRHSSPNFGAIPSSTNVGRETY-NH2
modifications: disulfide 2-7; N-terminus assumed
SMILES: CC[C@H](C)[C@H](NC(=O)[C@H](C)NC(=O)CNC(=O)[C@H](Cc1ccccc1)NC(=O)[C@H](CC(N)=O)NC(=O)[C@@H]1CCCN1C(=O)[C@H](CO)NC(=O)[C@H](CO)NC(=O)[C@H](Cc1c[nH]cn1)NC(=O)[C@H](CCCNC(=N)N)NC(=O)[C@H](CC(C)C)NC(=O)[C@H](Cc1ccccc1)NC(=O)[C@H](CCC(=O)O)NC(=O)[C@H](C)NC(=O)[C@H](CC(C)C)NC(=O)[C@H](CCCNC(=N)N)NC(=O)[C@H](CCC(N)=O)NC(=O)[C@@H](NC(=O)[C@H](C)NC(=O)[C@@H]1CSSC[C@H](NC(=O)[C@@H](N)CCCCNC(=O)CC[C@H](NC(=O)CCCCCCCCCCCCCCCCCCC(=O)O)C(=O)O)C(=O)N[C@@H](CC(N)=O)C(=O)N[C@@H]([C@@H](C)O)C(=O)N[C@@H](C)C(=O)N[C@@H]([C@@H](C)O)C(=O)N1)[C@@H](C)O)C(=O)N1CCC[C@H]1C(=O)N[C@@H](CO)C(=O)N[C@@H](CO)C(=O)N[C@H](C(=O)N[C@@H](CC(N)=O)C(=O)N[C@H](C(=O)NCC(=O)N[C@@H](CCCNC(=N)N)C(=O)N[C@@H](CCC(=O)O)C(=O)N[C@H](C(=O)N[C@@H](Cc1ccc(O)cc1)C(N)=O)[C@@H](C)O)C(C)C)[C@@H](C)O

By IC50 is commonly meant the point on the concentration scale where inhibition reaches its midpoint.

Numbered stars: 1 amine (or outer) side, 2 acyl side, 3 side chain; on linkers, the order of the positions; unused ones are H or OH. Bridge positions count the residues as written; N and C are the ends. Side chains are listed from the residue outwards. Ends that are not written are not given here. * marks the point of attachment. C20 diacid = O=C(O)CCCCCCCCCCCCCCCCCCC(=O)*; γGlu = O=C(O)[C@H](CCC(=O)[*:2])N[*:1]

The target in the first experiment is T1, rat amylin receptor (rat calcitonin …). Briefly: SPA competition vs 125I-rat amylin, membranes (Assay VI).
As for B1, the IC50 amounted to 0.3 nM.

As to B2, the IC50 is 1.16 nM.

With B3, the IC50 amounted to 0.958 nM.

In the case of B4, the IC50 came to 0.339 nM.

With B5, the IC50 is 1.06 nM.

In another experiment the target is T2, rat calcitonin receptor. Briefly: ratio of IC50 on rat calcitonin receptor to IC50 on rat amylin receptor.
Regarding B1, the “Ratio rCT/rAmylin binding” value turned out to be 62.

With B2, the “Ratio rCT/rAmylin binding” value was 22.7.

As for B3, the “Ratio rCT/rAmylin binding” value was found to be 34.6.

Take B4: the “Ratio rCT/rAmylin binding” value worked out at 45.5.

As for B5, the “Ratio rCT/rAmylin binding” value was determined as 81.1.

Another experiment addresses T3, human calcitonin receptor. Briefly: ratio of IC50 on human calcitonin receptor to IC50 on human amylin receptor. An outline of the steps:
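IC₅₀ values were derived by one-site competition analysis of SPA counts. Cell membranes (35 ng/μL) with SPA beads were incubated with test compounds for 120 min at 25° C in Hepes buffer, pH 7.4, containing CaCl2, MgCl₂, OA and Tween20.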
Take B1: the “Ratio hCT/hAmylin binding” value came to 16.7.

As to B2, the “Ratio hCT/hAmylin binding” value stood at 26.4.

Turning to B3, the “Ratio hCT/hAmylin binding” value stood at 11.1.

On to B4, for which the “Ratio hCT/hAmylin binding” value came out at 38.6.

Consider B5, for which the “Ratio hCT/hAmylin binding” value came to 28.5.

The next experiment deals with T2, rat calcitonin receptor. Nature of the experiment: SPA competition vs 125I-calcitonin, membranes (Assay VIII).
Consider B1, for which the IC50 amounted to 18.6 nM.

In the case of B2, the IC50 turned out to be 26.3 nM.

In the case of B3, the IC50 amounted to 33.1 nM.

In the case of B4, the IC50 came out at 15.4 nM.

On to B5, for which the IC50 stood at 86.1 nM.
